The record followed here is article PMC10557143, “Promoter R-Loops Recruit U2AF1 to Modulate Its Phase Separation and RNA Splicing”.

Residue numbers refer to the chain shown, from its start.

In series [1] the target is T1, U2AF1 (human, UniProt Q01081 1-240).
T1 sequence: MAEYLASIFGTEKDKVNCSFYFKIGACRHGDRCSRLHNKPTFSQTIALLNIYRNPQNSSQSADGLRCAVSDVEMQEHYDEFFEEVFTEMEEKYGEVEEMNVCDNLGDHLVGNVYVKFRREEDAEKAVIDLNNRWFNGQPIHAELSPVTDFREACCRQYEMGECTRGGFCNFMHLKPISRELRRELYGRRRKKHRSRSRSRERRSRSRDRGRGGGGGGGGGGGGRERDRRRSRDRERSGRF
In words: fluorescence anisotropy; 100 mM K+; Anisotropy: 10 nM probe, 10 mM Tris-HCl pH 7.5, 1 mM EDTA, 100 mM KCl, 0.1 mM DTT, 10 ug/mL BSA, 30 min on ice; EMSA same but Tris pH 8.0, 6% native PAGE in 1x. As to conditions: protein: recombinant, tags: His6 (pET30a), label: 5' TAMRA. For orientation: In fluorescence polarisation assays a small probe gives low polarisation when free and higher when bound to something large.

Series [2] concerns the target T1, U2AF1. In words: fluorescence anisotropy; Anisotropy: 10 nM probe, 10 mM Tris-HCl pH 7.5, 1 mM EDTA, 100 mM KCl, 0.1 mM DTT, 10 ug/mL BSA, 30 min on ice; EMSA same but Tris pH 8.0, 6% native PAGE in 1x. As to conditions: protein: recombinant, tags: His6 (pET30a).
Another series deals with T2, U2AF1-ZF2 (human, UniProt Q01081 149-176).
T2 chain: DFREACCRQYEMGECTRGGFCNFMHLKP
The description is as above. As to conditions: protein: recombinant; tags: His6 (pET30a); label: 5' TAMRA; parallel intramolecular G4.

As usually defined, the Kd is the equilibrium constant for the complex coming apart. For the molecule AAAGGGTTAGTGTTAGTGTTAGGGAA (ssDNA) [hTel_M4], the Kd with U2AF1 [1] is 60 ± 6 nM.

B1: cMYC G4-R-loop (mixed)
?: GCGAGGGGCGGCCGGAGAGC
DNA 1: CCGCTCCGGCAGCTCAGGCCCTGGCGCTCTCCGGCCGCCCCTCGCCCGCCCGGGCTCCTCCTCCTGTGCC
DNA 2: GGCACAGGAGGAGGAGTTTTTTCTGAGGGTGGGGAGGGTGGGGAAGGCATTTTTTGAGCTGCCGGAGCGG
With B1, in the series with U2AF1 [2] (label: 5' Cy3 on RNA strand, R-loop bubble: strand 1 RNA, strand 2 template DNA, strand 3 displaced DNA, some slow-migrating putative intermolecular G4), the Kd was 3.5 nM.

B2: cMYC M4-R-loop (mixed)
?: GCGAGGGGCGGCCGGAGAGC
DNA 1: B1 DNA 1
DNA 2: B1 DNA 2 with G32A, G37T
With B2, in the series with U2AF1 [2] (label: 5' Cy3 on RNA strand, R-loop bubble: strand 1 RNA, strand 2 template DNA, strand 3 displaced DNA), the Kd worked out at 13 nM.

Turning to AGGGAGGGCGCTGGGAGGAGGG (structured_DNA) [cKIT_G4], the Kd with U2AF1 [1] (parallel intramolecular G4) amounted to 15 ± 2 nM.

Take TGAGGGTGGGGAGGGTGGGGAAGG (structured_DNA) [cMYC_G4]: the binding signal with U2AF1-ZF2 is > 10 fold lower affinity than full length. Further, the Kd with U2AF1 [1] (parallel intramolecular G4) is 10.8 ± 0.9 nM.

On to AGGGAGGGCTCTGTGAGGAGGG (ssDNA) [cKIT_M4], for which the Kd with U2AF1 [1] is 19 ± 4 nM.

TGAGGGTGAGGAGTGTGGGGAAGG (ssDNA) [cMYC_M4]: the Kd in the series with U2AF1 [1] is 22 ± 1 nM.

As to UUUUAGGU (ssRNA) [U2AF1_RNA Motif (AG motif)], the Kd with U2AF1 [2] (label: 5' Cy3) stood at 350 nM.

B3: RNA/DNA hybrid (DNA:RNA)
?: GCGAGGGGCGGCCGGAGAGC
DNA: GCTCTCCGGCCGCCCCTCGC
For the molecule B3, the dissociation constant Kd with U2AF1 [2] (label: 5' Cy3 on RNA strand, blunt, strand 1 RNA, strand 2 DNA) was found to be 6.7 nM.

With GGGTTAGTGTTAGTGTTAGGGT (ssDNA) [2KF8_M4], the Kd in the series with U2AF1 [1] worked out at 10 ± 2 nM.

On to GGGTTAGGGTTAGGGTTAGGGT (structured_DNA) [2KF8_G4], for which the Kd in the series with U2AF1 [1] (antiparallel intramolecular G4) stood at 9 ± 1 nM.

For AAAGGGTTAGGGTTAGGGTTAGGGAA (structured_DNA) [hTel_G4], the Kd with U2AF1 [1] (hybrid-type intramolecular G4) was 50 ± 6 nM.
